Test results from paper PMC10040874, “Burst kinetics and CNNM binding are evolutionarily conserved properties of phosphatases of regenerating liver” (The Journal of Biological Chemistry, 2023).

B4: Drosophila melanogaster PRL (wild-type) (enzyme, D. melanogaster, UniProt O61722 1-176, looked up)
chain: MSITMRQKDLRPAPALIEYKGMKFLITDRPSDITINHYIMELKKNNVNTVVRVCEPSYNTDELETQGITVKDLAFEDGTFPPQQVVDEWFEVLKDKYQQNPEACVAVHCVAGLGRAPVLVALALIELGLKYEAAVEMIRDKRRGAINAKQLSFLEKYKPKARLKHKNGHKNSCSVQ
notes: the single PRL of D. melanogaster, cloned without the C-terminal prenylation site; also called Drosophila PRL; fly PRL; source: E. coli BL21(DE3), purified (TALON Co2+ resin, Superdex-75)
B5: Drosophila melanogaster CNNM CBS-pair domain, GST-tagged (domain or fragment, D. melanogaster)
chain: VNIISGALELRKKTVADVMTHINDAFMLSLDALLDFETVSEIMNSGYSRIPVYDGDRKNIVTLLYIKDLAFVDTDDNTPLKTLCEFYQNPVHFVFEDYTLDIMFNQFKEGTIGHIAFVHRVNNEGDGDPFYETVGLVTLEDVIEELIQAEIVDE
notes: CBS-pair domain of the Drosophila CNNM protein encoded by the uex (unextended) gene; also called Drosophila CNNM; dCNNM; source: E. coli BL21(DE3), purified (glutathione-Sepharose, Superdex-75); not shown: GST, N-terminal, kept

Assays:
Assay in all cases: ITC; VP-ITC, 20 °C, 20 mM Hepes pH 7.5, 100 mM NaCl, 5 mM TCEP; GST-CBS-pairs titrated with PRL; single site-binding model
Settings in all cases: both partners purified
[1] = target: T1, Caenorhabditis elegans PRL (C. elegans)
T1 construct: the single PRL of C. elegans, cloned without the C-terminal prenylation site; also called C. elegans PRL; source: E. coli BL21(DE3), purified (TALON Co2+ resin, Superdex-75)

human PRL2 = target: T2, human PRL2 (human, UniProt Q12974 1-163)
T2 construct: human phosphatase of regenerating liver 2 (PRL2); also called hPRL2; source: E. coli BL21(DE3), purified (TALON Co2+ resin, Superdex-75)
T2 sequence: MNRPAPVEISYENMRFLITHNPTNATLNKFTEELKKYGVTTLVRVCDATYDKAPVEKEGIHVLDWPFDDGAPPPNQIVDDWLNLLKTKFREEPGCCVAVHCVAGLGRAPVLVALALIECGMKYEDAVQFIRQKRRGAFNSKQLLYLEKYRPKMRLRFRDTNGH

[2] = target: B5
[3] = target: B4

B1: CBS-pair domain of a C. elegans CNNM protein (the one of two expressed that bound with 1 μM affinity) (domain or fragment)
chain: LKIAVGAMEIADKVVKDVMTKIEDVFMLPDTTVLNAKTVMEIVKMGYTRIPVYQYGDKNNVTDMLFVKDLALLDPDDNFTVKTVCGYHKHPVKFVMNDTPLPNLLEAFKKGEGHLAMVKRLINTDDKHDPSYVLVGVVTLEDIVEEILQAEINDE
modifications: Table S2: only CNNM1 (376-530) and CNNM3 (375-527) gave protein; assigning the 1 uM binder to CNNM1 is inferred from listing order (Figure 4 not in text)
Question: How did the Kd [1] turn out when B1 was run?
Answer: 1 µM

B2: CBS-pair domain of a C. elegans CNNM protein (the one of two expressed that bound with 13 μM affinity) (domain or fragment)
chain: FKMVLGALELYDKTVAHAMTRYEDIFMLPHTLTLGAGMVTQILDMGYTRIPIYENDRKNIVALLFVKDLALLDPDDNHNVMKIASIYNHEVRRVLVDMPLRNMLEEFKRGEYHMALVERLVEQEDKDPIYELCGLITLEDIIEEIIQCEIIDE
modifications: Assigning the 13 uM binder to CNNM3 is inferred from listing order (Figure 4 not in text)
Question: How did the Kd [1] turn out when B2 was run?
Answer: 13 µM

B3: human CNNM3 CBS-pair domain (domain or fragment)
chain: LRCRTVEDVLTPLEDCFMLDASTVLDFGVLASIMQSGHTRIPVYEEERSNIVDMLYLKDLAFVDPEDCTPLSTITRFYNHPLHFVFNDTKLDAVLEEFKRGKSHLAIVQKVNNEGEGDPFYEVLGLVTLEDVIEEIIRSEILDE
notes: CBS-pair domain of human CNNM3; the ITC methods call all the titrated domains GST-CBS-pairs, the human one included; also called hCNNM3; GST-CBS-pair; source: E. coli BL21(DE3), purified; not shown: GST, N-terminal, kept
Question: Does B3 bind (human PRL2)?
Answer: binds

Question: With B4 as the binder, how does the “fold weaker affinity than the human complex” value [2] read?
Answer: 20 fold

Question: How did the Kd [3] turn out when B5 was run?
Answer: 350 nM
